In publication PMC6477179 (2019):

Target: GST-p62 FIR (aa 326-380) (human, UniProt Q13501 326-380)
Assay: SPR

Kd: 5.1 µM
B1: FIP200 CTR (aa 1458-1594) (domain or fragment)
chain: RIMLLERTLQLKEEENKRLNQRLMSQSMSSVSSRHSEKIAIRDFQVGDLVLIILDERHDNYVLFTVSPTLYFLHSESLPALDLKPGEGASGASRRPWVLGKVMEKEYCQAKKAQNRFKVPLGTKFYRVKAVSWNKKV
